Results: the supplement of paper PMC9170038

System: MS2 coat protein
Experiment: apparent KD of MS2 coat protein; designed switch direction (-1 OFF switch, 1 ON switch): 1; higher = weaker reporter binding
Outline: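 Apparent KD, taken as the median over clusters for each design, was obtained by curve-fitting normalised cluster fluorescence. Designed RNA switches had been transcribed on Illumina chips by stalled E. coli RNA polymerase and titrated with SNAP-549-labelled MS2 coat protein, doubling from 0.7 or 1.5 nM to 3 µM.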

[1] = input ligand: microRNA oligo, concentration not stated
[2] = Eterna round: R95, input ligand: FMN 200 uM
[3] = Eterna round: R95, input ligand: microRNA oligo, concentration not stated
[4] = Eterna round: R95, input ligand: none

Row | Sequence | apparent KD of MS2 coat protein (input ligand: FMN 200 uM) [nM] | apparent KD of MS2 coat protein [1] [nM] | apparent KD of MS2 coat protein (input ligand: none) [nM] | apparent KD of MS2 coat protein [2] [nM] | apparent KD of MS2 coat protein [3] [nM] | apparent KD of MS2 coat protein [4] [nM]
1 | UUAAUGAUGUAAGGAUAUACAUGAGGAUUUCUCGUAGAAGGUACAAGACAUGAGGAUCACCCAUGUGUCGCUCGAAAGAGCGUA [Mat - Same State NG 1 - JL mod - D20] (Eterna round: R96, puzzle: Same State NG 1) | 282 | 113 | 316 |  |  | 
2 | AGUCCAGCCUGAGCUGGACAAAAGCAUGUACAUGAGGAUCACCCAUGUUUAUGUACAAGCUUUUUGCUCGUCUUAAA [Zipper 52 - 12] (puzzle: Sensor for hsa-mir-208a) |  |  |  | 257 | 16.2 | 313
3 | CGGGUAAUCGUAGGAUAUCUAGGAUAUGAACGAGGAUCACCCGAGCAGCAUCAGCGCAUCAGAGGAGAGAAGGACGAUGAUGCG [pwkr ssNG2 2F5 2FMN.18] (Eterna round: R96, puzzle: Same State NG 2) | 164 | 199 | 470 |  |  | 
4 | GGAGCCAGCACCGAGGAUAUUCAUAUUAAAACAUGAGGAUCACCCAUGUAGGCCAGAAGGCCUUGGGAGAAGGCGGACUGGCUCG [Xeonanis - 11] (Eterna round: R96, puzzle: Same State 2) | 18.8 | 212 | 364 |  |  | 
5 | GUAUCUACAGGUUGCGAUGCUCGUCUGAUACAUGAGGAUCACCCAUGUUAUAGCCCUGUGCUUGCGCAGGGCUGAUU [Sensor for hsa-mir-208a ( MOD of Tearor v.2 )] (Eterna round: R96, puzzle: Sensor for hsa-mir-208a) | 105 | 26.7 | 84.6 |  |  | 
6 | GAGGAACAGGCCAACAUGAGGAUCACCCAUGUCCUCGCAUUUCAGGAUAUCUGGAAGAAGAAAAAAGAGAAGGGAAGGUGAAGC [AK SSNG3-V2-34.3] (Eterna round: R96, puzzle: Same State NG 3) | 198 | 140 | 165 |  |  | 
7 | AGAGAACAUGAGGAUCACCCAUGUAGGAUGGGCAUAGGAUAUAGAAGGAUGAAGGAGAAACUAGAAGGAUGAUGGA [JR_SS1_Sub076] (puzzle: Same State 1) |  |  |  | 107 | 145 | 235
8 | AGCGAACAGGCUAACAUGAGGAUCACCCAUGUGGACUCAUGUUAGGAUAUCGGGAAGGAGGAAACCGAGAAGGGACGGUGAGCC [AK SSNG3-V2-46] (Eterna round: R96, puzzle: Same State NG 3) | 332 | 14.6 | 30.6 |  |  | 
9 | UGUUGUAUUACAGGAUAUCUAUGAUUUUUAUUAAGAGAAGGGUAUUCACAUGAGGAUCACCCAUGUAUAUACGAGGAAGUUGUG [JMF's solution 70] (Eterna round: R96, puzzle: Same State NG 1) |  | 25.6 |  |  |  | 
10 | GAAAAGGCAACGCAGGAUAUGAAAGGUGAAACAUGAGGAUCACCCAUGUGCUACCUUCCGAUAAAUCAGAAGGGCGACGCCAAAA [Leceave] (puzzle: Same State 2) |  |  |  | 15.4 | 15.6 | 19.4
11 | GGUAGGUUACUACCAAACAUGAGGAUCACCCAUGUAAGUGGGAAGGAUAUGGUACCUUUUAGGUACCAGAAGGUCCAAUUAAUU [JL Fiskers NG3ss - 2 mod 5] (Eterna round: R96, puzzle: Same State NG 3) | 205 | 511 | 3700 |  |  | 
12 | AUAAUACAUGAGGAUCACCCAUGUAAUUUAACUUGUAAGAUCAAGGAUAUCAGCUCGAAUAGAGCUGAGAAGGUGAUCACAUGU [SSNG3/20-A1] (Eterna round: R96, puzzle: Same State NG 3) |  | 70.7 |  |  |  | 
13 | UGACAAGUGGUAGGAUAUCCAUGACAUGAGGAUCACCCAUGUUCUUUUGGUGUCCGUCACGGACGGGAGAAGGACCAACAUGAG [Same State NG2 S3] (Eterna round: R96, puzzle: Same State NG 2) | 10.1 | 9.45 | 12.9 |  |  | 
